From article PMC2672617, “Abl Kinase Inhibits the Engulfment of Apopotic Cells in Caenorhabditis elegans” (PLoS Biology, 2009) come the findings set out here.

For assay [1], the target named is T1, GST-ABI-1 (glutathione-S-transferase fused to the N terminus of full-length C. elegans ABI-1) (C. elegans, UniProt Q10929 1-469).
T1 construct: ABI-1, C. elegans homolog of the Abi proteins; full-length abi-1 from cDNA yk1204a12, bp 47-1,456; Cloned in pDEST15 (Gateway). bp 47-1,456 is 1,410 bp, i.e. 469 codons and a stop if the stop codon is included; not shown: GST, N-terminal, kept
T1 sequence (looked up): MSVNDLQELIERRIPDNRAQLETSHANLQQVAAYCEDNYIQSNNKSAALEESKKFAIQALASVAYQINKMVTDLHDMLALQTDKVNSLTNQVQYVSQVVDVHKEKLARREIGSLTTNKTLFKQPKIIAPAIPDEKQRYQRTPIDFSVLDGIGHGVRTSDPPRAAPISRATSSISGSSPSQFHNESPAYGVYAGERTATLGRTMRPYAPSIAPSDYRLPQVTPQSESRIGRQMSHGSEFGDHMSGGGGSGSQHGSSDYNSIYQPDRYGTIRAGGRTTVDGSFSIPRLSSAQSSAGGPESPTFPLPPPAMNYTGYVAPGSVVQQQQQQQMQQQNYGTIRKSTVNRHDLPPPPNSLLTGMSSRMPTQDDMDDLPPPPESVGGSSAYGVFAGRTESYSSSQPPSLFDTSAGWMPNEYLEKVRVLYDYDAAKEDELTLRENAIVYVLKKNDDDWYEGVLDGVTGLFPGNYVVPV
Description: pull-down; GST, GST-ABI or GST-ABIΔ on glutathione beads incubated with 25 μl of a 100 μl 35S-labelled in vitro transcription/translation reaction; 2 h at 4 °C in PBB2 (25 mM HEPES pH 7.6, 150 mM NaCl, 5 mM MgCl2, 0.1 mM EDTA, 0.1% Tween-20, 0.25% BSA); washes with 300 and 250 mM NaCl; SDS-PAGE, autoradiography, phosphorimager quantitation. The conditions noted are these: one partner purified.

The target of assay [2] is GST-ABI-1Δ (N-terminal GST fusion to the product of the abi-1(tm494) allele) (C. elegans) (UniProt Q10929). Described as above.

B1: ABL-1(112–611), N-terminal fragment of C. elegans ABL-1 (domain or fragment, UniProt P03949 112-611, looked up)
chain: SSSSSAPLFVALYDFHGVGEEQLSLRKGDQVRILGYNKNNEWCEARLYSTRKNDASNQRRLGEIGWVPSNFIAPYNSLDKYTWYHGKISRSDSEAILGSGITGSFLVRESETSIGQYTISVRHDGRVFHYRINVDNTEKMFITQEVKFRTLGELVHHHSVHADGLICLLMYPASKKDKGRGLFSLSPNAPDEWELDRSEIIMHNKLGGGQYGDVYEGYWKRHDCTIAVKALKEDAMPLHEFLAEAAIMKDLHHKNLVRLLGVCTHEAPFYIITEFMCNGNLLEYLRRTDKSLLPPIILVQMASQIASGMSYLEARHFIHRDLAARNCLVSEHNIVKIADFGLARFMKEDTYTAHAGAKFPIKWTAPEGLAFNTFSSKSDVWAFGVLLWEIATYGMAPYPGVELSNVYGLLENGFRMDGPQGCPPSVYRLMLQCWNWSPSDRPRFRDIHFNLENLISSNSLNDEVQKQLKKNNDKKLESDKRRSNVRERSDSKSRHSSHHD
modifications: labeled with 35S in vitro
notes: contains the SH3, SH2 and tyrosine kinase domains; Cloned in pDEST14 (Gateway) for expression in vitro; also called N-terminal half of ABL-1; source: in vitro translated (TNT T7 Quick Coupled Transcription/Translation system, Promega)
Turning to B1, the “fold binding in the ABI-1 lane over the GST lane (phosphorimager)” value in assay [1] was determined as 8 fold. In assay [2], this molecule yielded a fold less ABL-1(112–611) bound than by ABI-1 of 3 fold.
